Source: patent US20120316071A1

Key:
[1] = target: Recombinant Human DLL4 (R&D Systems Cat#1506-D4/CF) (human) (UniProt Q9NR61); assay: ECL multispot (MSD), antigen spotted, Fab in solution
[2] = target: rHuman HGF R/c-MET/Fc Chimera, CF (R&D Systems Cat#358-MT/CF) (human) (UniProt P08581); assay: as above
[3] = target: rHuman P-Cadherin/Fc Chimera, CF (R&D Systems Cat#861-PC) (human) (UniProt P22223); assay: as above
[4] = target: rHuman IGF-1 sR, CF (R&D Systems Cat#391-GR) (human) (UniProt P08069); assay: as above
[5] = target: rHuman Erythropoietin R/Fc Chimera, CF (R&D Systems Cat#963-ER) (human) (UniProt P19235); assay: as above
[6] = target: rHuman Notch-1/Fc Chimera, CF (R&D Systems Cat#3647-TK) (human) (UniProt P46531); assay: as above
[7] = target: rHuman CD44/Fc Chimera, CF (R&D Systems Cat#3660-CD) (human) (UniProt P16070); assay: as above
[8] = target: rHuman HGF R/c-MET/Fc Chimera, CF (R&D Systems Cat#358-MT/CF) (human) (UniProt P08581); assay: ECL multispot (MSD) binding assay, antigen spotted on plate, Fab 0.04 uM
[9] = target: rHuman IGF-1 sR, CF (R&D Systems Cat#391-GR) (human) (UniProt P08069); assay: as above
[10] = target: human DLL4, full-length, expressed on the surface of CHO cells (human) (UniProt Q9NR61); assay: cell-based or functional assay
[11] = target: rHuman Notch-1/Fc Chimera, CF (R&D Systems Cat#3647-TK) (human) (UniProt P46531); assay: ECL multispot (MSD) binding assay, antigen spotted on plate, Fab 0.04 uM
[12] = target: rHuman P-Cadherin/Fc Chimera, CF (human) (UniProt P22223); assay: ECL Multispot (MSD) assay; antigen spotted on plate, Fab in solution
[13] = target: Recombinant Human DLL4 (R&D Systems Cat#1506-D4/CF) (human) (UniProt Q9NR61); assay: ECL Multispot (MSD), antigen spotted, Fab
[14] = target: rHuman HGF R/c-MET/Fc Chimera, CF (R&D Systems Cat#358-MT/CF) (human) (UniProt P08581); assay: ECL Multispot (MSD), antigen spotted, Fab
[15] = target: rHuman Notch-1/Fc Chimera, CF (R&D Systems Cat#3647-TK) (human) (UniProt P46531); assay: ECL Multispot (MSD), antigen spotted, Fab
[16] = target: rHuman EGF R/Fc Chimera, CF (R&D Systems Cat#344-ER) (human) (UniProt P00533); assay: ECL (MSD) multispot binding assay, antigen spotted on plate, 20 nM Fab
[17] = target: rHuman IGF-1 sR, CF (R&D Systems Cat#391-GR) (human) (UniProt P08069); assay: ECL Multispot (MSD), antigen spotted, Fab
[18] = target: rHuman CD44/Fc Chimera, CF (R&D Systems Cat#3660-CD) (human) (UniProt P16070); assay: ECL multispot (MSD) binding assay, antigen spotted on plate, Fab 0.04 uM
[19] = target: rHuman ErbB2/Fc Chimera, CF (R&D Systems Cat#1129-ER) (human) (UniProt P04626); assay: ECL (MSD) multispot binding assay, antigen spotted on plate, 20 nM Fab
[20] = target: rHuman Erythropoietin R/Fc Chimera, CF (R&D Systems Cat#963-ER) (human) (UniProt P19235); assay: ECL multispot (MSD) binding assay, antigen spotted on plate, Fab 0.04 uM
[21] = target: human Delta-like ligand 4 (DLL4), full-length, expressed on CHO cells (human) (UniProt Q9NR61); assay: cell-based or functional assay
[22] = target: rHuman ErbB2/Fc Chimera, CF (R&D Systems Cat#1129-ER) (human) (UniProt P04626); assay: MSD Multispot ECL, antigen spotted on plate, Fab in solution; blank spot of the row 240
[23] = target: rHuman IGF-1 sR, (IGF-1 sR), CF (R&D Systems Cat#391-GR) (human) (UniProt P08069); assay: as above
[24] = target: rHuman CD44/Fc Chimera, CF (R&D Systems Cat#3660-CD) (human) (UniProt P16070); assay: as above
[25] = target: rHuman P-Cadherin/Fc Chimera, CF (R&D Systems Cat#861-PC) (human) (UniProt P22223); assay: ECL multispot (MSD) binding assay, antigens spotted on plate, 20 nM Fab
[26] = target: rHuman Erythropoietin R/Fc Chimera, CF (R&D Systems Cat#963-ER) (human) (UniProt P19235); assay: as above
[27] = target: rHuman Notch-1/Fc Chimera, CF (R&D Systems Cat#3647-TK) (human) (UniProt P46531); assay: as above

Fab VH3-23_IGHD3-10*01>3_IGHJ6*01 Y112P & O12_IGKJ1*01
ECL signal/blank ratio [1]: 1 | ECL signal/blank ratio [2]: 1.1 | ECL signal/blank ratio [3]: 1.4 | ECL signal/blank ratio [4]: 0.8 | ECL signal/blank ratio [5]: 0.9 | ECL signal/blank ratio [6]: 1.1 | ECL signal/blank ratio [7]: 1.1

Fab VH5-51_IGHD5-18*01>3_IGHJ4*01 G100K/G104T (H:KT) & V3-4_IGLJ1*01 M94A
ECL signal [8]: 1150 | ECL signal [9]: 1090

Fab VH1-46_IGHD6-6*01_IGHJ1*01 S102A/S103P/S104F/H111F I51V/N52L/S54T/G56H (APFF VLTH) & L6_IGKJ1*01 S28N/S30D/S31H S52L/A55S (NDH LS)
Notch1 luciferase reporter luminescence, T98G reporter cells + CHO-DLL4, 100 nM Fab, replicate 1 [10]: 2400 | Notch1 luciferase reporter luminescence, T98G reporter cells + CHO-DLL4, 100 nM Fab, replicate 2 [10]: 2280 | Notch1 luciferase reporter luminescence, T98G reporter cells + CHO-DLL4, 100 nM Fab, replicate 3 [10]: 2150 | Notch1 luciferase reporter luminescence, T98G reporter cells + CHO-DLL4, 100 nM Fab, replicate 4 [10]: 2170

Fab VH5-51_IGHD5-18*01>3_IGHJ4*01 G100K/G104T (H:KT) & V3-4_IGLJ1*01 G95A
ECL signal [8]: 999 | ECL signal [9]: 1090 | ECL signal [11]: 707

Fab VH1-46_IGHD6-6*01_IGHJ1*01 S102A/S103P/S104F/H111F (APFF) & L6_IGKJ1*01 S28T
ECL signal [12]: 676

Fab VH5-51_IGHD5-18*01>3_IGHJ4*01 G100K/G104T (H:KT) & V3-4_IGLJ1*01 V91A
ECL signal [9]: 1030

Fab VH3-23_IGHD3-10*01>3_IGHJ6*01 Y111R & O12_IGKJ1*01
ECL signal/blank ratio [13]: 2.9 | ECL signal/blank ratio [14]: 3.2 | ECL signal/blank ratio [15]: 3

Fab VH3-23_IGHD2-21*01>3_IGHJ6*01 H100E/S108P/Y113G Y112R & V2-13_IGLJ2*01
ECL multispot value [16]: 3.7

Fab VH3-23_IGHD3-10*01>3_IGHJ6*01 Y110R & O12_IGKJ1*01
ECL signal/blank ratio [13]: 3 | ECL signal/blank ratio [14]: 3 | ECL signal/blank ratio [17]: 2.5 | ECL signal/blank ratio [15]: 2.8

Fab VH5-51_IGHD5-18*01>3_IGHJ4*01 G100K/G104T (H:KT) & V3-4_IGLJ1*01 L92A
ECL signal [9]: 959 | ECL signal [11]: 693 | ECL signal [18]: 695

IgG of VH1-46_IGHD6-6*01_IGHJ1*01 S102A/S103P/S104F/H111F I51V/N52L/S54T/G56H (APFF VLTH) & L6_IGKJ1*01 S28N/S30D/S31H S52L/A55S (NDH LS) (antibody)
Notch1 luciferase reporter luminescence, T98G reporter cells + CHO-DLL4, 0.8 nM IgG, replicate 1 [10]: 4440 | Notch1 luciferase reporter luminescence, T98G reporter cells + CHO-DLL4, 0.8 nM IgG, replicate 2 [10]: 4520 | Notch1 luciferase reporter luminescence, T98G reporter cells + CHO-DLL4, 0.8 nM IgG, replicate 3 [10]: 3900 | Notch1 luciferase reporter luminescence, T98G reporter cells + CHO-DLL4, 0.8 nM IgG, replicate 4 [10]: 3980 | Notch1 luciferase reporter luminescence, T98G reporter cells + CHO-DLL4, 4 nM IgG, replicate 1 [10]: 4260 | Notch1 luciferase reporter luminescence, T98G reporter cells + CHO-DLL4, 4 nM IgG, replicate 2 [10]: 3860 | Notch1 luciferase reporter luminescence, T98G reporter cells + CHO-DLL4, 4 nM IgG, replicate 3 [10]: 3950 | Notch1 luciferase reporter luminescence, T98G reporter cells + CHO-DLL4, 4 nM IgG, replicate 4 [10]: 3760 | Notch1 luciferase reporter luminescence, T98G reporter cells + CHO-DLL4, 20 nM IgG, replicate 1 [10]: 1250 | Notch1 luciferase reporter luminescence, T98G reporter cells + CHO-DLL4, 20 nM IgG, replicate 2 [10]: 1270 | Notch1 luciferase reporter luminescence, T98G reporter cells + CHO-DLL4, 20 nM IgG, replicate 3 [10]: 1170 | Notch1 luciferase reporter luminescence, T98G reporter cells + CHO-DLL4, 20 nM IgG, replicate 4 [10]: 1190 | Notch1 luciferase reporter luminescence, T98G reporter cells + CHO-DLL4, 100 nM IgG, replicate 1 [10]: 757 | Notch1 luciferase reporter luminescence, T98G reporter cells + CHO-DLL4, 100 nM IgG, replicate 2 [10]: 807 | Notch1 luciferase reporter luminescence, T98G reporter cells + CHO-DLL4, 100 nM IgG, replicate 3 [10]: 678 | Notch1 luciferase reporter luminescence, T98G reporter cells + CHO-DLL4, 100 nM IgG, replicate 4 [10]: 688

Fab VH3-23_IGHD2-21*01>3_IGHJ6*01 H100E/S108P/Y113G/Y111H & V2-13_IGLJ2*01
ECL signal/blank ratio [16]: 2.9 | ECL signal/blank ratio [19]: 3

Fab VH5-51_IGHD5-18*01>3_IGHJ4*01 G100K/G104T (H:KT) & V3-4_IGLJ1*01 G97A
ECL signal [8]: 1110 | ECL signal [9]: 1030 | ECL signal [20]: 528 | ECL signal [11]: 660 | ECL signal [18]: 642

Fab VH1-46_IGHD6-6*01_IGHJ1*01 S102A/S103P/S104F/H111F I51V/N52L/S54T/G56H & L6_IGKJ1*01 S28N/S30D/S31H S52L/A55S
Notch1 luciferase reporter luminescence, T98G reporter cells + CHO-DLL4, 0.8 nM Fab, replicate 1 [21]: 4740 | Notch1 luciferase reporter luminescence, T98G reporter cells + CHO-DLL4, 0.8 nM Fab, replicate 2 [21]: 4890 | Notch1 luciferase reporter luminescence, T98G reporter cells + CHO-DLL4, 0.8 nM Fab, replicate 3 [21]: 3820 | Notch1 luciferase reporter luminescence, T98G reporter cells + CHO-DLL4, 0.8 nM Fab, replicate 4 [21]: 4080 | Notch1 luciferase reporter luminescence, T98G reporter cells + CHO-DLL4, 4 nM Fab, replicate 1 [21]: 4840 | Notch1 luciferase reporter luminescence, T98G reporter cells + CHO-DLL4, 4 nM Fab, replicate 2 [21]: 4880 | Notch1 luciferase reporter luminescence, T98G reporter cells + CHO-DLL4, 4 nM Fab, replicate 3 [21]: 4250 | Notch1 luciferase reporter luminescence, T98G reporter cells + CHO-DLL4, 4 nM Fab, replicate 4 [21]: 4670 | Notch1 luciferase reporter luminescence, T98G reporter cells + CHO-DLL4, 20 nM Fab, replicate 1 [21]: 4380 | Notch1 luciferase reporter luminescence, T98G reporter cells + CHO-DLL4, 20 nM Fab, replicate 2 [21]: 4480 | Notch1 luciferase reporter luminescence, T98G reporter cells + CHO-DLL4, 20 nM Fab, replicate 3 [21]: 3960 | Notch1 luciferase reporter luminescence, T98G reporter cells + CHO-DLL4, 20 nM Fab, replicate 4 [21]: 3990

Fab VH5-51_IGHD5-18*01>3_IGHJ4*01 G100K/G104T (H:KT) & V3-4_IGLJ1*01 S99A
ECL signal [8]: 909 | ECL signal [9]: 943

Fab VH5-51_IGHD5-18*01>3_IGHJ4*01 G100K/G104T (H:KT) & V3-4_IGLJ1*01 S96A
ECL signal [8]: 1120 | ECL signal [9]: 927 | ECL signal [20]: 684 | ECL signal [11]: 715 | ECL signal [18]: 678

Fab VH5-51_IGHD5-18*01>3_IGHJ4*01 G100K/G104T (H:KT) & V3-4_IGLJ1*01 Y93A
ECL signal [8]: 1130 | ECL signal [9]: 1050

Fab VH3-23_IGHD2-21*01>3_IGHJ6*01 H100E/S108P/Y113G Y114N & V2-13_IGLJ2*01
ECL multispot value [19]: 3.5

Fab VH1-46_IGHD6-6*01_IGHJ1*01 S102A/S103P/S104F/H111F (APFF) & L6_IGKJ1*01 S28Q
ECL signal [12]: 809

Fab VH5-51_IGHD5-18*01>3_IGHJ4*01 G100K/G104T W33A & V3-4_IGLJ1*01
ECL signal [22]: 921 | ECL signal [23]: 788 | ECL signal [24]: 513

Fab VH3-23_IGHD2-21*01>3_IGHJ6*01 H100E/S108P/Y113G Y110H & V2-13_IGLJ2*01
ECL multispot signal (ratio to blank; column not labelled) [25]: 2.9 | ECL multispot signal (ratio to blank; column not labelled) [26]: 3.7

Fab VH3-23_IGHD2-21*01>3_IGHJ6*01 H100E/S108P/Y113G Y110I & V2-13_IGLJ2*01
ECL multispot signal (ratio to blank; column not labelled) [27]: 2.5

Fab VH3-23_IGHD2-21*01>3_IGHJ6*01 H100E/S108P/Y113G Y110T & V2-13_IGLJ2*01
ECL multispot signal (ratio to blank; column not labelled) [26]: 3.5 | ECL multispot signal (ratio to blank; column not labelled) [27]: 2.3

Fab VH3-23_IGHD2-21*01>3_IGHJ6*01 H100E/S108P/Y113G Y109G & V2-13_IGLJ2*01
ECL multispot signal (ratio to blank; column not labelled) [25]: 2.7
